B1: Tryptophan synthase alpha chain, P0A877 (parent)
chain: MERYESLFAQLKERKEGAFVPFVTLGDPGIEQSLKIIDTLIEAGADALELGIPFSDPLADGPTIQNATLRAFAAGVTPAQCFEMLALIRQKHPTIPIGLLMYANLVFNKGIDEFYAQCEKVGVDSVLVADVPVEESAPFRQAALRHNVAPIFICPPNADDDLLRQIASYGRGYTYLLSRAGVTGAENRAALPLNHLVAKLKEYNAAPPLQGFGISAPDQVKAAIDAGAAGAISGSAIVKIIEQHINEPEKMLAALKVFVQPMKAATRS

This data set covers variants of B1. The settings on record: Escherichia coli (strain K12), Thermal, DSC, structure 1WQ5, whole UniProt chain shown.
[1] abbreviates: pH 7, 25 °C, potassium phosphate 1 mM, reversible: yes(<50%).
Setting [2] is: pH 7, potassium phosphate 1 mM, reversible: yes(<50%).
Where [3] appears, read: pH 9.3, 25 °C, sodium tetraborate 1 mM, reversible: yes(>70%).
The mark [4] stands for this setting: pH 9.3, sodium tetraborate 1 mM, reversible: yes(>70%).

With MERYESLFAQLKERKEGAFVPFVTLGDPGIEQSLKIIDTLIEAGADALSLGIPFSDPLADGPTIQNATLRAFAAGVTPAQCFEMLALIRQKHPTIPIGLLMYANLVFNKGIDEFYAQCEKVGVDSVLVADVPVEESAPFRQAALRHNVAPIFICPPNADDDLLRQIASYGRGYTYLLSRAGVTGAENRAALPLNHLVAKLKEYNAAPPLQGFGISAPDQVKAAIDAGAAGAISGSAIVKIIEQHINEPEKMLAALKVFVQPMKAATRS [E49S], the “heat capacity change of unfolding” value worked out at 2.9 kcal/mol/K under setting [1], 2.9 kcal/mol/K under setting [2], 2.9 kcal/mol/K under setting [3] and 2.9 kcal/mol/K under setting [4]. Further, the unfolding free energy by setting is: under setting [1], 7.7 kcal/mol; under setting [3], 7.1 kcal/mol. Moreover, the Tm came out at 60.5 °C under setting [2] and 58.6 °C under setting [4].
As for MERYESLFAQLKERKEGAFVPFVTLGDPGIEQSLKIIDTLIEAGADALQLGIPFSDPLADGPTIQNATLRAFAAGVTPAQCFEMLALIRQKHPTIPIGLLMYANLVFNKGIDEFYAQCEKVGVDSVLVADVPVEESAPFRQAALRHNVAPIFICPPNADDDLLRQIASYGRGYTYLLSRAGVTGAENRAALPLNHLVAKLKEYNAAPPLQGFGISAPDQVKAAIDAGAAGAISGSAIVKIIEQHINEPEKMLAALKVFVQPMKAATRS [E49Q], under setting [1], the “heat capacity change of unfolding” value is 2.9 kcal/mol/K and the unfolding free energy is 7.4 kcal/mol. Under setting [3], the “heat capacity change of unfolding” value worked out at 2.9 kcal/mol/K and the unfolding free energy stood at 8.4 kcal/mol. For the same variant, under setting [4], the Tm came to 62.4 °C and the “heat capacity change of unfolding” value came to 2.9 kcal/mol/K.

These data come from FireProtDB (doi:10.1111/j.1399-3011.1982.tb00898.x).
